Data as given in PMC3496059 (Structure (London, England : 1993), 2012).

Biological target: NSUN4 (residues 26–384) (human, UniProt Q96CB9 26-384)
Assay: ITC

Sequence of NSUN4 (residues 26–384) (Q96CB9 26-384): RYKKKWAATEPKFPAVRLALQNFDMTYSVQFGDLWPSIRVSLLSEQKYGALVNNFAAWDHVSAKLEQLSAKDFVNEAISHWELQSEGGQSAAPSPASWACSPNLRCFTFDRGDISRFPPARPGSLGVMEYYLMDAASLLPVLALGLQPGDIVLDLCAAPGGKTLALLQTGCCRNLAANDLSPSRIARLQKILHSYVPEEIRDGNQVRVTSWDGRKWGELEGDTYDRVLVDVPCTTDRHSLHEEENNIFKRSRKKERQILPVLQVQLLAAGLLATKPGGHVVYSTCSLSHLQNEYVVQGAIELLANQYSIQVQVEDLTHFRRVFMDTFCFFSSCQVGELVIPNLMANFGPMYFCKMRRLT

B1: MTERF4 (residues 66–332) (domain or fragment, human, UniProt Q7Z6M4 66-332, looked up)
chain: EPECRRNLVQCLLEKQGTPVVQGSLELERVMSSLLDMGFSNAHINELLSVRRGASLQQLLDIISEFILLGLNPEPVCVVLKKSPQLLKLPIMQMRKRSSYLQKLGLGEGKLKRVLYCCPEIFTMRQQDINDTVRLLKEKCLFTVQQVTKILHSCPSVLREDLGQLEYKFQYAYFRMGIKHPDIVKSEYLQYSLTKIKQRHIYLERLGRYQTPDKKGQTQIPNPLLKDILRVSEAEFLARTACTSVEEFQVFKKLLAREEEESESSTS
With B1 the Kd was 13.3 ± 0.4 nM, the dH was -11 ± 0.22 kcal/mol and the “stoichiometry N” value was 1.08 ± 0.02.
